In US20070010428A1, “Inhibitors of signal transduction and activator of transcription 3” (priority 2004, published 2007):
One block for each binder: values may come before it. [ ]: non-standard residue; d: D form. pY = N[C@@H](Cc1ccc(OP(=O)(O)O)cc1)C(=O)O

Legend:
[1] = biological target: full length Stat3, P40763; test: fluorescence polarization, full length Stat3 titrated into the FP probe
[2] = biological target: Stat3 (as in the EMSA of Table 1), P40763; test: EMSA: inhibition of Stat3 dimerization and DNA binding, average of two determinations
Sequence of Stat3 (as in the EMSA of Table 1), P40763 (P40763 whole entry): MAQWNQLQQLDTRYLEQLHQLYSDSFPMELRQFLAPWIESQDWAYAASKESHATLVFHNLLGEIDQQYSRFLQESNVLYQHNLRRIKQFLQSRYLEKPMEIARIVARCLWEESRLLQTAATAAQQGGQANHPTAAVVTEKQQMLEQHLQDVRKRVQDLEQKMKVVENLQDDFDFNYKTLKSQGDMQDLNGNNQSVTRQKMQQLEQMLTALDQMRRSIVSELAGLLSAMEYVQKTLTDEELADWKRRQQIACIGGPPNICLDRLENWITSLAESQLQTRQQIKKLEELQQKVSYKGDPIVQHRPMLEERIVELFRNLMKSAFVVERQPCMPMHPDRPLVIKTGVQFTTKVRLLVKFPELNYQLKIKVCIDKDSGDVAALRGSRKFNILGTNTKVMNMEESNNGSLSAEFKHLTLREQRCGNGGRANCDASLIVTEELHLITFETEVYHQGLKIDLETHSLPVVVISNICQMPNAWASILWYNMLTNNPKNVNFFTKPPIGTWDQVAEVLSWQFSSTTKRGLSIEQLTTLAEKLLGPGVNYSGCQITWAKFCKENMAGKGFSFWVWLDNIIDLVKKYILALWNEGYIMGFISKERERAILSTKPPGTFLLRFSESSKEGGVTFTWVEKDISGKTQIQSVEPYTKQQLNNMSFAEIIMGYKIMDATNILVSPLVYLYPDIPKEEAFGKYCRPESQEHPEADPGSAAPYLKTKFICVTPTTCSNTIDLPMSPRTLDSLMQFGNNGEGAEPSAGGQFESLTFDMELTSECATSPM

Sequence of full length Stat3, P40763 (P40763 whole entry): as above

Binder: YHNQPL (modifications not checked) [Ac-Y(p)HNQPL-NH2 (EGFR Tyr 1086 hexapeptide)]
IC50 [2]: 150 µM

Binder: YINQSV (modifications not checked) [Ac-Y(p)INQSV-NH2 (EGFR Tyr 1068 hexapeptide)]
IC50 [2]: 30 µM

The next lines start with the values.

Kd [1]: 0.05 µM
Binder: {fluorescein‑5‑carboxyl}-A[pY]LPQTV-NH2 [fluorescein-5-carboxyl-Ala-pTyr-Leu-Pro-Gln-Thr-Val-NH2]

IC50 [2]: 20 µM
B1: Ac-pTyr-Leu-Lys-Thr-Lys-Phe-NH2 (peptide)
chain: Ac-[pY]LKTKF-NH2
SMILES: CC(=O)N[C@@H](Cc1ccc(OP(=O)(O)O)cc1)C(=O)N[C@@H](CC(C)C)C(=O)N[C@@H](CCCCN)C(=O)N[C@H](C(=O)N[C@@H](CCCCN)C(=O)N[C@@H](Cc1ccccc1)C(N)=O)[C@@H](C)O
